Data from paper PMC11249618, “Presenilin2 D439A Mutation Induces Dysfunction of Mitochondrial Fusion/Fission Dynamics and Abnormal Regulation of GTPase Activity” (Molecular Neurobiology, 2023).

Biological target: T1, His-Miro2(220–592) (UniProt Q8IXI1 220-592)
T1 construct: Mitochondrial Rho GTPase 2 (Miro2), amino acids 220–592, in pET-32a; source: E. coli BL21, purified
Assay: pull-down; GST pull-down of recombinant GST-PS2 fragments with recombinant His-Miro2 fragments; bound material eluted with SDS sample buffer, SDS-PAGE and Western blot (Fig. 5C, D)
Conditions: both partners purified

T1 sequence (Q8IXI1 220-592): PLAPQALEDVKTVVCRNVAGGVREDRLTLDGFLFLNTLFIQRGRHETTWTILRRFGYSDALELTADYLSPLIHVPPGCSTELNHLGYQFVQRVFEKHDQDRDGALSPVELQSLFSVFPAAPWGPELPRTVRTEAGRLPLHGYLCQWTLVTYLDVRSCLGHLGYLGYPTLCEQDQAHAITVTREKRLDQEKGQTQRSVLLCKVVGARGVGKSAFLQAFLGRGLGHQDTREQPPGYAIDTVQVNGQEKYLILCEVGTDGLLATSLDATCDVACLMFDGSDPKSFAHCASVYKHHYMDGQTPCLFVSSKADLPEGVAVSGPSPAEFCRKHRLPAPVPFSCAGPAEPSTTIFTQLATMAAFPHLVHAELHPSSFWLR

B1: GST-PS2(271–361) (domain or fragment)
chain: not shown
notes: source: E. coli BL21, purified
binding result: binds
